The target in test [1] is HLA-A*0201 molecules on T2 cells (human (endogenous in T2)). The test is described as follows: flow cytometry on cells. For orientation: A flow cytometer gives signals particle by particle.
For the next test, the target named is HLA-A*0201 molecules (Homo sapiens, UniProt P04439, D140Y/D185E/D98H/E176V/E277Q/G131W/G231S/I119V/I121R/I166T/I218V/L300P/L318F/N151K/N90K/P208A/P217A/Q86G/Q94H/R138H/R169H/T345S). The experiment in a line: T2 binding assay (MHC stabilization assay with T2 cells, flow cytometry). The format is cell-based. The following applies: FI = (mean FITC fluorescence with peptide − without peptide)/(without peptide), high affinity FI ≥1, representative of three independent experiments. From the text:
(A) The overlapping method of 8 aa overlap was used to synthesize a total of 191 nonapeptides covering HBc aa 1–150. […] (C and D) Measurement of the binding affinity of HBc141–149N- or C-terminally truncated (C) or extended (D) peptides to HLA-A*0201. HBc82-90 served as a negative control (NC). (E) In vitro refolding of HBC141–149 peptide with HLA-A*0201 heavy chain and β2m. Gel filtration chromatography was used to analyze the refolded complexes on a Superdex200 16/60 column. […] The HLA complex (peak 2) was analyzed by SDS-PAGE electrophoresis and coomassie blue staining
T2 cells were used to perform MHC stabilization assays as previously described (Zhou et al., [2006]). The binding activity of each peptide was calculated as the fluorescent index (FI), and the FI was determined by: (mean FITC fluorescence with the given peptide − mean FITC fluorescence without peptide) (mean FITC fluorescence without peptide).

Test [2] deals with peptide-specific CTLs. The test is described as follows: IFN-γ ELISPOT on splenocytes of immunized HLA-A2.1/Kb transgenic mice. Format: in vivo. The conditions noted are these: female HLA-A2.1/Kb mice, HBc DNA prime/peptide boost with gp96 adjuvant, 1 week after last immunization; 5 × 10^5 splenocytes; mean ± SD of five mice (Fig. 3A). As for the experimental part: Figure 3 Detection of HBc141–149 peptide-specific CD8 ^+ T cell response in HLA-A2.1/Kb mice and AHB patients. Female HLA-A2.1/Kb transgenic mice were immunized with an HBV DNA prime/peptide boost regimen at weeks 1, 3, and 4. […] (B and C) 293T cells labeled with CFSE were transfected with pHBV1.3 as target cells (B), and T2 cells labeled with CFSE were loaded with 20 μg/mL peptide at 37°C for 1 h as target cells (C). […] After 4 h, the mixed samples were stained with PI, and the killing of target cells were analyzed by FACS. The data shown are the mean ± SD of five mice. (D) AHB patients (n = 29) were divided into HLA-A2-positive (n = 19) and HLA-A2-negative (n = 10) groups. PBMCs (2 × 10^5/well) from these patients were stimulated with the indicated peptides for detection of peptide-specific CTLs by ELISPOT assay. HBc82–90 peptide served as negative control for background evaluation in ELISPOT assay. PBMCs from HLA-A2- patients were used for specificity evaluation of CTLs. Paired samples t-tests were used for ELISPOT assay in AHB patients. *P < 0.05 and **P < 0.01 by t-test. Data are representative of two independent experiments […]
To detect epitope-specific T cells, enzyme-linked immunosorbent spot (ELISPOT) assay was performed according to the manufacturer’s instruction. […] The spots were counted and analyzed using an ELISPOT Reader (Cellular Technology Ltd, USA).

For test [3], the system named is peptide-specific CTLs. The test is described as follows: Ex vivo IFN-γ ELISPOT on PBMCs from HLA-A2+ AHB patients. The format is cell-based, human. The following applies: PBMCs 2 × 10^5/well from HLA-A2+ AHB patients (n = 19), 50 μg/mL peptide; mean ± SD (Fig. 3D).
Text: (D) AHB patients (n = 29) were divided into HLA-A2-positive (n = 19) and HLA-A2-negative (n = 10) groups. PBMCs (2 × 10^5/well) from these patients were stimulated with the indicated peptides for detection of peptide-specific CTLs by ELISPOT assay. […] PBMCs from HLA-A2- patients were used for specificity evaluation of CTLs. Paired samples t-tests were used for ELISPOT assay in AHB patients. *P < 0.05 and **P < 0.01 by t-test. Data are representative of two independent experiments
A total of 29 AHB patients were enrolled for blood collection, which were divided into two groups: HLA-A2-positive (n = 19) and HLA-A2-negative (n = 10). All patients were negative for HCV, HDV, and HIV-1 infection. 10 mL of blood samples were collected from each patient.
To detect epitope-specific T cells, enzyme-linked immunosorbent spot (ELISPOT) assay was performed according to the manufacturer’s instruction. Briefly, ninety-six well PVDF plates (BD-Pharmigen, San Diego, CA) were precoated overnight at 4°C with the coating Ab and blocked for 1 h at 37°C. Patient PBMCs (2 × 10^5) or murine splenocytes (10^6) were added to each well together with 50 μg/mL of peptide and incubated at 37°C for 24–48 h with phytohemagglutinin (PHA)-stimulated T cells as positive controls. Each test was performed at least in triplicate. The spots were counted and analyzed using an ELISPOT Reader (Cellular Technology Ltd, USA).

Data on ten substances can be found in article PMC3978166, “A new unconventional HLA-A2-restricted epitope from HBV core protein elicits antiviral cytotoxic T lymphocytes” (Protein & Cell, 2014).

As for HBc141–148 peptide, the FI (fluorescent index) in test [1] was found to be 0.124. Turning to STLPETTV [HBc141–148], at HLA-A*0201 molecules, the “FI (fluorescent index), binding to HLA-A*0201” value (“FI (fluorescent index), binding” for short) turned out to be 0.124.

In turn, HBc141–150 peptide yielded an FI (fluorescent index) in test [1] of 0.005.

Take RELVVSYVN [HBc82–90]: the “peptide-specific CTL response, IFN-γ ELISPOT (SFC)” value with peptide-specific CTLs [2] was “No peptide-specific CD8^+ T cell response was detected”. Besides, in the test on peptide-specific CTLs [3], the “peptide-specific CTL response, ex vivo IFN-γ ELISPOT” value is reported as 20.94 ± 17.57. As to HBc141–149 peptide, the FI (fluorescent index) in test [1] was 2.41. On to “LSTLPETTVV [HBc140–149, extended decapeptide of HBc141–149, […]]”, for which, on HLA-A*0201 molecules, the “FI (fluorescent index), binding” value came to 0.033. HBc140–149 peptide displayed an FI (fluorescent index) in test [1] of 0.033. In the case of TLPETTVV [HBc142–149], the “FI (fluorescent index), binding” value on HLA-A*0201 molecules was determined as 0.151.

In turn, HBc142–149 peptide yielded an FI (fluorescent index) in test [1] of 0.151. For HBc60–68 (V60) peptide, the FI (fluorescent index) in test [1] is 2.64.
